In patent CN113372445A:

Experiments:
人PD-1蛋白 (human) [1] = biological target: 人PD-1蛋白 (human) (UniProt Q15116); experiment: BLI (ForteBio), antibody loaded on sensor, PD-1 protein 100-6.25 nM in solution
人PD-1蛋白 (human) [2] = biological target: 人PD-1蛋白 (human) (UniProt Q15116); experiment: competition ELISA: human PD-1 coated, antibody titrated together with biotin-labelled PD-L1 (competitor)
[3] = biological target: PD-1 on GS-J2/PD-1 cells (human) (UniProt Q15116); experiment: cell-based or functional assay
Chain of PD-1 on GS-J2/PD-1 cells (human) (Q15116 25-288 limits assumed): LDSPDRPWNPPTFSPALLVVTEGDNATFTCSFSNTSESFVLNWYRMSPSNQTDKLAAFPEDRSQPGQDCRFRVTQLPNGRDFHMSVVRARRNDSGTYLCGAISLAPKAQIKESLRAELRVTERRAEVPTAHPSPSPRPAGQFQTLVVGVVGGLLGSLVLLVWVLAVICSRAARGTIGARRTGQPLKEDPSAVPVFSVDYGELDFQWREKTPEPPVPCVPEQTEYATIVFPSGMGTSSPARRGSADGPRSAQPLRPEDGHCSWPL

Chain of 人PD-1蛋白 (human) (Q15116 25-167 limits assumed): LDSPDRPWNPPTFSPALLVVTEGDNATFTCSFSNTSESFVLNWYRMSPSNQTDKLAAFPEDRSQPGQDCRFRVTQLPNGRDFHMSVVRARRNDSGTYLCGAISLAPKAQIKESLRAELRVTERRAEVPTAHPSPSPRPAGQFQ

| Substance | Kd (人PD-1蛋白 (human) [1]) [nM] | EC50 (人PD-1蛋白 (human) [2]) [nM] | EC50(nM), luciferase reporter (RLU, 激活百分比) in GS-J2/PD-1 cells co-cultured with GS-C2/PD-L1 cells [3] [nM] | koff (人PD-1蛋白 (human) [1]) [s⁻¹] | kon (人PD-1蛋白 (human) [1]) [M⁻¹ s⁻¹] |
| --- | --- | --- | --- | --- | --- |
| Opdivo (antibody) | 1.63 | 175 |  |  |  |
| Keytruda (antibody) | 1.01 | 110 | 0.142 | 0.000286 | 283000 |
